US20260098093A1

Target: recombinant human VISTA-Fc protein (R&D #7126-B7) (human) (UniProt Q9H7M9)
Test: ELISA: plate coated with human VISTA-Fc, LRIG1.HIS titrated (x axis labelled 'Antibody Concentration (log M)')

Chain of recombinant human VISTA-Fc protein (R&D #7126-B7) (human) (Q9H7M9 33-194 limits assumed): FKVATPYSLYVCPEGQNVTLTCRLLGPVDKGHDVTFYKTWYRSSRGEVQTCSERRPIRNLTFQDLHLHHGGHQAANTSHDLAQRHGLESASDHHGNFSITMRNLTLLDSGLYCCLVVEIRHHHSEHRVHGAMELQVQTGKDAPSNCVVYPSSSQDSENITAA

- EC50 (read off the curve): 9 nM
Substance: recombinant human LRIG1.HIS (from UniProt Q96JA1 35-794) (receptor)
